We go through nine sequences from the DeepSol protein solubility set.

A short description of this series: soluble on expression in E. coli; label from the status in PepcDB or PDB records.
As for “MYLAYYGFAEKPFQLKPDPNFFFPSRGHKRAAAYLEYGLSQEDGFIIITGDVGAGKTTLMRYLFQKLRQERVAAAQLVSTRLDPDDALRMVAAAFGLSYEGLSKAALLLELERFMRKCERESTRVLLVVDEAQNLLPQTLEELRMLSNFQSDNRPLLQTFLLGQPEFRRTLLGSQMQQLRQRVIATYHLGPLDQAETRAYIEHRLQKAGWNGSPVLQDEIFEVIHNFSAGIPRKINLFCDRLLIMGCLEELQTLGKAEANEVMLDIQKEFDLAVSPELEHHHHHH”, the “soluble on expression in E. coli” value is given as “soluble”.

In the case of “GDDNEIEIPKAPVLEKAQLALAIKSEEGAVTKTGETTPTDADVNTLTVGVFGVDGWSVIYTKDATPNSDGTKDVGPQEVYAGEAHVVVVANAAPVIQTELAKAKDITDFIETTINLSDETLTKGLTMSSKVLDVTLVANTTNYIGYDDEVGDITVKDISGKEVYGAGPVPLVRDVASIALAGADIGNPENANYESKSFVLKEVFIASAKGVSSVASTEEWGTIEKDFFGDTHFGYLDYKVGLLFLTSPNNIDEGSYKKGLQTKYDALAKKHVENDPALNHEFYVYENTKGEVKSGESNVNEAYANHTLLIVKGDYTYLPQGAKESITKENCYYAIPVGEEVTIDGTEKRSKFYVQRNYKYEISLTIIGPGSEIPYDPMISTNVSASVKVEPWNVKTIHEEVE”, the “soluble on expression in E. coli” value is recorded as “soluble”.

On to “MDKYRLLLLGGGRGLFDIDEDFMHWIDEFIEEHSNSIEITIVTGKNKKLYDNLTHKKPLKNIKVLGFVNDMYNLIRECDLMLTKPGGATIFEAIQSQTPVLVKMPKVGQEIENAKFIIDKGLGMIYSDDLDLKNIFYKLVSNEFDSIINFMKKNLKEFKTVIHPEKIADYISELIDNHLEHHHHHH”, for which the “soluble on expression in E. coli” value was “not soluble”.

For the sequence “HHHHHGSIMKVLRKGDRGDEVCQLQTLLNLCGYDVGKPDGIFGNNTFNQVVKFQKDNCLDSDGIVGKNTWAELFSKYSPPIPYKTIPMPTANKSRAAATPVMNAVENATGVRSQLLLTFASIESAFDYEIKAKTSSATGWFQFLTGTWKTMIENYGMKYGVLTDPTGALRKDPRISALMGAELIKENMNILRPVLKREPTDTDLYLAHFFGPGAARRFLTTGQNELAATHFPKEAQANPSIFYNKDGSPKTIQEVYNLMDGKVAAHRK”, the “soluble on expression in E. coli” value is given as “soluble”.

Take “MEFVKGDQVEVCSKEDGFLGSYFGATVVSKTPEGSYYKIKYKNLVSDTDQSKRLVEVISADELRPMPPKSLHVLIRCGDKVDAFDKDGWWVGEVTAVRRNIYSVYFSTTDEELEYPLYSLRKHHEWVNGSWVRQ”: the “soluble on expression in E. coli” value was “soluble”.

“GHMEERVLGMPAVESNMFPLGKQAPPFALTNVIDGNVVRLEDVKSDAATVIMFICNHCPFVKHVQHELVRLANDYMPKGVSFVAINSNDAEQYPEDSPENMKKVAEELGYPFPYLYDETQEVAKAYDAACTPDFYIFDRDLKCVYRGQLDDSRPNNGIPVTGESIRAALDALLEGRPVPEKQKPSIGCSIKWKPSA”: the “soluble on expression in E. coli” value was “soluble”.

“MSLNEEQLSKRLEKVASYITKNERIADIGSDHAYLPCFAVKNQTASFAIAGEVVDGPFQSAQKQVRSSGLTEQIDVRKGNGLAVIEKKDAIDTIVIAGMGGTLIRTILEEGAAKLAGVTKLILQPNIAAWQLREWSEQNNWLITSEAILREDNKVYEIMVLAPSEKPVTWTKQEIFFGPCLLKEQSAIFKSKWRHEANTWQNIIQTISNNQPVSTENQAKIRELEHKIALVEDVLKEGHHHHHH”: the “soluble on expression in E. coli” value was “soluble”.

For “GGVVVTPRAPYIHDLDGLPMAWDLVEWPIYTYRAKNDARLAIVSSSRGCKQQCSFCSQQLFWSQSWRARSAENFVAELEMLHTVHGVQVAMLSDEIPTFDRQRWVRILDLMIERQVPVKLLMETRVDDILRDADIMDRYREGGVEHIYVGVEAGTQETLDLFKKDTQVEQSKQAIDLINNADIVSETSFVLGMPDDTPESIAQTIELAKHYNPDMAFFLAIAPWPYAELYPQLEEYVATKDYRKYNLVEPVIKPKHMTLEELERQLGKASQQFFMH”, the “soluble on expression in E. coli” value is reported as “not soluble”.

Regarding “MGSDKIHHHHHHMSNELESNDVIKISVSHLALGMFVTAIDNAKGALSITNPGQIKTQDAINKLLKSGIKSVWVDVERSADNCGLKKTSAESFEPTKGNPLARKAKPSRDSKQAQVKVILNEAKNLVRKVLSETYEGKAVEVAPFEEIADRMIESVMDDADAMKCISALRTKDAYLLEHSVNVAFLLVTFGKHLGLDKTMLKEMAVGGILHDIGKIKVDNEVLHKPGKLTPEEFAHIKLHQVYAVEIMEQTQGLAQVSKDVCLMHHEKLDGRGYPKGLKGDEIPLHGRMSCIVDIFDALTATRCYKEAMSPAAAFKILISLTPFHLDQALVYEFIRCVGIYPVGSLVQLSDERIGIVWEAKDRDALHPVVKCFYSLKHKRYTEVTMVDLRKAEVNIERGVSPGTLDVDPTPFY”, the “soluble on expression in E. coli” value is recorded as “not soluble”.
